Data from patent publication US20130251707A1 (BALIOPHARM, published 2013).

T1: rhesus TNFR1-Fc (rhesus; human, UniProt A0A1D5QSM0 27-209)
T1 construct: range 27-209; also called rheTNFR1-Fc; not shown: Fc of vector pSecTagL1-Fc (human IgG1 Fc is stated for the human TNFR1-Fc)
T1 sequence: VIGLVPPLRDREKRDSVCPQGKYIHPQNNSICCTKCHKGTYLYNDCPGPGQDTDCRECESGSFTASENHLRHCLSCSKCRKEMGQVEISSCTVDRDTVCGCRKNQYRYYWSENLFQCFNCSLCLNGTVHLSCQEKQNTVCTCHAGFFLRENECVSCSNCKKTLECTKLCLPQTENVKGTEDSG

T2: human TNFR1-Fc (human, UniProt P19438 29-211)
T2 construct: range 29-211; also called huTNFR1-Fc; recombinant human TNFR1-Fc fusion protein; not shown: human IgG1 Fc region (vector pSecTagL1-Fc)
T2 sequence (looked up): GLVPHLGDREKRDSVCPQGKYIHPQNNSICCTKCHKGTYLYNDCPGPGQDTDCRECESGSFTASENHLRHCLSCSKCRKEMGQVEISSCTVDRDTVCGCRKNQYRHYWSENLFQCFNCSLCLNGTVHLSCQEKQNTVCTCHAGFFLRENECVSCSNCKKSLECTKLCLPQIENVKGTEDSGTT

T3: human TNFR1-Fas on transfected mouse embryonic fibroblasts (human, UniProt P19438 30-211; P25445 191-335, limits assumed)
T3 construct: extracellular domain;domain: intracellular domain; also called MEF-TNFR1-Fas
T3 sequence (looked up): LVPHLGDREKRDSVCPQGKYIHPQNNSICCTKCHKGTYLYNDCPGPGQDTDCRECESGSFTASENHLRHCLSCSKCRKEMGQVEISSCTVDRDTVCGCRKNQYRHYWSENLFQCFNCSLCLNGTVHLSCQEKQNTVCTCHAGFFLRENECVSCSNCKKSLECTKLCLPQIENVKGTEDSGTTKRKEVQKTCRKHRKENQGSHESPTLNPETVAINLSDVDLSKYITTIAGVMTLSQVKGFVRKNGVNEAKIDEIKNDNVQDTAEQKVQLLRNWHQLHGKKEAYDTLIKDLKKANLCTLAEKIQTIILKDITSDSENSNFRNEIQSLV

T4: human TNFR1 on Kym-1, HeLa and HT1080 cells (human, UniProt P19438 30-455)
T4 sequence (looked up): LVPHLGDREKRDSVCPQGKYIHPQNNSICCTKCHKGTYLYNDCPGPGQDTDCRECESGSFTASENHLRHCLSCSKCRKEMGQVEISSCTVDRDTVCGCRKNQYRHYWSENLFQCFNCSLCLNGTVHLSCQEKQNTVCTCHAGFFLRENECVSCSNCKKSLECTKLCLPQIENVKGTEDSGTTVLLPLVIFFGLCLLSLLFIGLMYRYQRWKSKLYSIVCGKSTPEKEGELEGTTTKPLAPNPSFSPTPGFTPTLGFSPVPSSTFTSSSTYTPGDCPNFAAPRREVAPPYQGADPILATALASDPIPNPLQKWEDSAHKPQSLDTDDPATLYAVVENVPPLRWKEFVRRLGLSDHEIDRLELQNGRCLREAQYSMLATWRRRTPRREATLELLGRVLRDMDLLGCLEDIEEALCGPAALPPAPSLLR

T5: human TNFR2-Fas on transfected mouse embryonic fibroblasts (human, UniProt P20333 23-257; P25445 191-335, limits assumed)
T5 construct: extracellular domain;domain: intracellular domain; also called MEF-TNFR2-Fas
T5 sequence (looked up): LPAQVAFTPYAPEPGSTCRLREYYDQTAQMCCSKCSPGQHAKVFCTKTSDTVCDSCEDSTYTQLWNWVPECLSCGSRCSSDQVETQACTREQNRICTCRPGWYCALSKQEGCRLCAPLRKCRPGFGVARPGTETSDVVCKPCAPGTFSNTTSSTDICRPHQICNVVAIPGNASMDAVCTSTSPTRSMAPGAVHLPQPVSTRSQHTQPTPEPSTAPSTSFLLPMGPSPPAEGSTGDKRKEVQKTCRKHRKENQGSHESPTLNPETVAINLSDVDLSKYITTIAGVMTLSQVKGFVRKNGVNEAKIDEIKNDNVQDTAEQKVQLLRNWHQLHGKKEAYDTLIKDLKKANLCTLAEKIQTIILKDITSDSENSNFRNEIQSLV

T6: mouse TNFR1-Fc (mouse; human, UniProt P25118 30-212)
T6 construct: range 30-212; also called moTNFR1-Fc; not shown: Fc of vector pSecTagL1-Fc (human IgG1 Fc is stated for the human TNFR1-Fc)
T6 sequence (looked up): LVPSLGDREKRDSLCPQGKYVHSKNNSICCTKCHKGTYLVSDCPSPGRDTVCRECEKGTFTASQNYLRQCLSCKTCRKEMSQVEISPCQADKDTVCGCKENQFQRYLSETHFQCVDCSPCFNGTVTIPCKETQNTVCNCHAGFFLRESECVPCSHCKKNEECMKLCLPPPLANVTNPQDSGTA

T7: chimeric human/mouse TNFR1-Fc construct 3 (human CRD1 and 2 substituted by the mouse domains) (mouse; human, UniProt P25118 30-125; P19438 126-211, limits assumed)
T7 construct: not shown: Fc of vector pSecTagL1-Fc
T7 sequence (looked up): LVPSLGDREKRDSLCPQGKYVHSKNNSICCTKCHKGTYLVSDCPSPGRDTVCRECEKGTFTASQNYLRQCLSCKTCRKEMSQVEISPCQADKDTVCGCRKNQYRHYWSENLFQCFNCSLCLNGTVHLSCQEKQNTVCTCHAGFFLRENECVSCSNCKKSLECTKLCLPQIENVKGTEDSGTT

T8: chimeric human/mouse TNFR1-Fc construct 5 (A1 domain of CRD1 of human TNFR1 exchanged with the mouse sequence) (mouse; human, UniProt P25118 30-58; P19438 59-211, limits assumed)
T8 construct: not shown: Fc of vector pSecTagL1-Fc
T8 sequence (looked up): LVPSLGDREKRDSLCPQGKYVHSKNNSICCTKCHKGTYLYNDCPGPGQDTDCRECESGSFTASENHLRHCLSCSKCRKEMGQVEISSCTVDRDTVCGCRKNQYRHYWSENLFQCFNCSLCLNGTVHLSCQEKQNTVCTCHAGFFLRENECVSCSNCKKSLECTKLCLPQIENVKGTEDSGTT

T9: chimeric human/mouse TNFR1-Fc construct 4 (human CRD1 substituted by the mouse domain) (mouse; human, UniProt P25118 30-82; P19438 83-211, limits assumed)
T9 construct: not shown: Fc of vector pSecTagL1-Fc
T9 sequence (looked up): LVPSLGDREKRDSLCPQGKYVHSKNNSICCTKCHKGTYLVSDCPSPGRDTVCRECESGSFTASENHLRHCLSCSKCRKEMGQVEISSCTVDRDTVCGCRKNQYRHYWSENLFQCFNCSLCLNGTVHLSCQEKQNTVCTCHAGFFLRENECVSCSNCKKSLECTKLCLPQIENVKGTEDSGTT

T10: chimeric human/mouse TNFR1-Fc construct 8 (mouse TNFR1 with human CRD1 and sub-domain A1 of CRD2) (human; mouse, UniProt P25118 100-212, limits assumed)
T10 construct: The label hl-2A1/m2B2-4 is tied to construct 8 by inference; also called chimeric TNFR1 hl-2A1/m2B2-4; not shown: Fc of vector pSecTagL1-Fc
T10 sequence: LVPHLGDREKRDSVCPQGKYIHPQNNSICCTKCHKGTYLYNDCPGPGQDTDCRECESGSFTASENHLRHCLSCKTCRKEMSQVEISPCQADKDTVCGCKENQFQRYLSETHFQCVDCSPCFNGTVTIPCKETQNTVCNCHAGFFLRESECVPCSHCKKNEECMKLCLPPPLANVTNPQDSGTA


Key:
rhesus TNFR1-Fc = target: T1, rhesus TNFR1-Fc; test: quartz crystal microbalance, TNFR1-Fc immobilized
Description: (§1) Affinities of the antibodies were determined by quartz crystal microbalance measurements (QCM; Attana A-100 C-Fast system, Stockholm, Sweden). Binding experiments were performed in PBS 0.005% Tween 20 at a flow rate of 25 to 35 μl/min and temperature was controlled at 20° C. The TNFR1-Fc fusion proteins were chemically immobilized on an Attana carboxyl sensor chip by amine coupling at a concentration of 50 μg/ml according to the manufacturer's protocol resulting in a signal increase (frequency shift) of approximately 200 Hz. Antibodies were analyzed at concentration between 62.5 and 3.9 nM (4 measurements per concentration). The chip was regenerated with 10 mM glycine-HCl, pH 3.0. Buffer injections were performed prior to each sample injection to use as a reference in Attester Evaluation. Data were collected by Attester 3.0 (Version 3.1.1.8, Attana, Stockholm, Sweden) and analyzed by ClampXP (Myszka and Morton 1998). A mass transport model (Myszka 1997) was fitted to the data.

human TNFR1-Fc = target: T2, human TNFR1-Fc; test: quartz crystal microbalance, TNFR1-Fc immobilized
Description: as §1

[1] = target: T3, human TNFR1-Fas on transfected mouse …; test: flow cytometry, titration on MEF-TNFR1-Fas cells
Description: (§2) Binding to TNFR1-Fas or TNFR2-Fas transfected MEF cells was analyzed by flow cytometry. Cells (2×105) were incubated with dilution series of antibodies for 4 h at 4° C. Cells were then washed with PBS and bound antibodies were detected with PE-labeled goat anti-mouse or anti-human antibody. Cells were analyzed by flow cytometry (Cytomics FC 500, Beckmann-Coulter, Krefeld, Germany). Data were evaluated with the program WinMDI, version 2.9, and fitted with GraphPrism software (La Jolla, USA) from 3 independent binding curves.

[2] = target: T4, human TNFR1 on Kym-1, HeLa and HT1080 …; test: cell-based or functional assay
[3] = target: T5, human TNFR2-Fas on transfected mouse …; test: flow cytometry on transfected MEF cells
Description: as §2

mouse TNFR1-Fc = target: T6, mouse TNFR1-Fc; test: ELISA on coated TNFR1-Fc (100 ng/well)
Description: (100 ng/well). Binding was detected by HRP-conjugated anti-molgG (Fc-specific) antibody or anti-human Fab antibody, respectively. Binding of an anti-human Fc antibody (anti-Fc) was included as coating control.

[4] = target: T7, chimeric human/mouse TNFR1-Fc construct …; test: ELISA on chimeric TNFR1-Fc
Description: (§3) Antibodies (0.1 nM) were analyzed by ELISA for binding to the TNFR1-Fc fusion proteins. […] Cysteine residues are marked with grey boxes and the 2 positions (P23, Q24) analyzed by site-directed mutagenesis are marked by asterisks.

[5] = target: T8, chimeric human/mouse TNFR1-Fc construct …; test: ELISA on chimeric TNFR1-Fc
Description: as §3

[6] = target: T9, chimeric human/mouse TNFR1-Fc construct …; test: ELISA on chimeric TNFR1-Fc
Description: as §3

[7] = target: T10, chimeric human/mouse TNFR1-Fc construct …; test: ELISA on chimeric TNFR1-Fc, antibody 0.1 nM
Description: as §3

Binder	Kd (rhesus TNFR1-Fc) [nM]	koff (rhesus TNFR1-Fc) [s⁻¹]	kon (rhesus TNFR1-Fc) [M⁻¹ s⁻¹]	Kd (human TNFR1-Fc) [nM]	koff (human TNFR1-Fc) [s⁻¹]	kon (human TNFR1-Fc) [M⁻¹ s⁻¹]	EC50 [1] [nM]	IC50, inhibition of TNF-induced IL-6 release from HeLa cells [2] [nM]	IC50, inhibition of TNF-induced IL-8 release from HT1080 cells [2] [nM]	binding result [3]	binding result (mouse TNFR1-Fc)	binding result [4]	binding result [5]	binding result [6]	binding result [7]
H398 (antibody, V domains shown) VH: QVQLQESGAELARPGASVKLSCKASGYTFTDFYINWVKQRTGQGLEWIGEIYPYSGHAYYNEKFKAKATLTADKSSSTAFMQLNSLTSEDSAVYFCVRWDFLDYWGQGTTLTVSS VL: DIVMTQSPLSLPVSLGDQASISCRSSQSLLHSNGNTYLHWYVQKPGQSPKLLIYTVSNRFSGVPDRFSGSGSGTDFTLKISRVEAEDLGVYFCSQSTHVPYTFGGGTKLEIK	0.49	0.0001	210000	0.23	7e-05	310000	~0.1	6	6	–	–	–	–	–	–
ATROSAB (antibody, human IgG1, kappa, V domains shown, Humanized full-length human IgG1 made in CHO cells; Effector-deficient Fc (IgG1e3: E233P/L234V/L235A/deltaG236, A327G/A330S/P331S), allotype G1m-1,17; also called IZI-06.1 IgG; humanized H398 IgG1) VH: QVQLVQSGAEVKKPGSSVKVSCKASGYTFTDFYINWVRQAPGQGLEWIGEIYPYSGHAYYNEKFKARVTITADKSTSTAYMELSSLRSEDTAVYYCARWDFLDYWGQGTTVTVSS VL: DIVMTQSPLSLPVTPGEPASISCRSSQSLLHSNGNTYLHWYLQKPGQSPQLLIYTVSNRFSGVPDRFSGSGSGTDFTLKISRVEAEDVGVYYCSQSTHVPYTFGGGTKVEIKR	0.1	6.7e-05	690000	0.35	0.00013	380000	~0.1	60	60	no binding	no binding (tested: 5 ug/ml)	no binding (tested: 0.1 nM)	no binding (tested: 0.1 nM)	no binding (tested: 0.1 nM)	binds
